From article PMC3515690 (Nature structural & molecular biology, 2012)

Tests used:
Atg7 D47A N50A K53A = target: T1, Atg7 D47A N50A K53A (S. cerevisiae, UniProt P38862 1-630, D47A | N50A | K53A); assay: cross-linking
T1 sequence (looked up): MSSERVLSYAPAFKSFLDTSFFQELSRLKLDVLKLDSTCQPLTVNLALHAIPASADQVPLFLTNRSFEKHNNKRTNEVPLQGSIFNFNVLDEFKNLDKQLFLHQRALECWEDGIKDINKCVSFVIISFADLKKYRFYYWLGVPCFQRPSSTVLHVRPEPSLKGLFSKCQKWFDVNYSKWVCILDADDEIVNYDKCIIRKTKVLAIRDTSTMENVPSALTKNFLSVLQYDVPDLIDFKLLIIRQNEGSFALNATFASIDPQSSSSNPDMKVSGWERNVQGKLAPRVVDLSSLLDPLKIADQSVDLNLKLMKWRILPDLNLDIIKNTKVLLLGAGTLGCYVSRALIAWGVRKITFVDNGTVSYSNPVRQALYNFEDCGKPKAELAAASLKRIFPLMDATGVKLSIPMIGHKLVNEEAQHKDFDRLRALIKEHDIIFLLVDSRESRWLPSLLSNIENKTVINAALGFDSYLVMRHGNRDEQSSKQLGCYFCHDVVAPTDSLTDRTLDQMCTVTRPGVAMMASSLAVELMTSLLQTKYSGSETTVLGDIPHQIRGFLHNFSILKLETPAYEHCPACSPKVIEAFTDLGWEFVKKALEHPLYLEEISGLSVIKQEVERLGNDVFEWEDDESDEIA

Atg7 (residues 1–613) = target: T2, Atg7 (residues 1–613) (S. cerevisiae, UniProt P38862 1-613, catalytic Cys507 linked through bismaleimidoethane (BMOE) to Atg3 Cys234); assay: crystal structure
T2 sequence (looked up): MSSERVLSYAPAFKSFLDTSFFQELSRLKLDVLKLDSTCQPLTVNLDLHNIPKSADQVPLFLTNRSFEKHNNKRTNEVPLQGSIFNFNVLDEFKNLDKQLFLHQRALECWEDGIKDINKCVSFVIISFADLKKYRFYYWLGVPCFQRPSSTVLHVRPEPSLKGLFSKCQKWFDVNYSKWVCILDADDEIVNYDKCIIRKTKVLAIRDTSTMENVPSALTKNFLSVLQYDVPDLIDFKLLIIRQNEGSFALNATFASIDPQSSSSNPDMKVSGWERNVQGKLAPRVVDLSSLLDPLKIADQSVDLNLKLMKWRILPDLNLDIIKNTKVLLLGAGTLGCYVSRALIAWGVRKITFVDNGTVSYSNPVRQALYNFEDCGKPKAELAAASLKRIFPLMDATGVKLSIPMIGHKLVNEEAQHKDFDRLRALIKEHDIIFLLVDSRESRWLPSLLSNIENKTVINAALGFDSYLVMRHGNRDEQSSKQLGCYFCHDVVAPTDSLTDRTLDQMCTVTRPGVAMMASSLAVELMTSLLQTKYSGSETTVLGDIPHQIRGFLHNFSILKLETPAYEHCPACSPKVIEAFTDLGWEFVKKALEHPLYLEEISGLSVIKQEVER

binding result (Atg7 D47A N50A K53A): binds
binding result (Atg7 (residues 1–613)): binds
B1: Atg3(C41A C76A C83A) (enzyme, S. cerevisiae)
chain: MIRSTLSSWREYLTPITHKSTFLTTGQITPEEFVQAGDYLAHMFPTWKWNEESSDISYRDFLPKNKQFLIIRKVPADKRAEQAVEVEGPDVIMKGFAEDGDEDDVLEYIGSETEHVQSTPAGGTKDSSIDDIDELIQDMEIKEEDENDDTEEFNAKGGLAKDMAQERYYDLYIAYSTSYRVPKMYIVGFNSNGSPLSPEQMFEDISADYRTKTATIEKLPFYKNSVLSVSIHPCKHANVMKILLDKVRVVRQRRRKELQEEQELDGVGDWEDLQDDIDDSLRVDQYLIVFLKFITSVTPSIQHDYTMEGW
modifications: Cys234 reacted with bismaleimidoethane (BMOE)
